Experimental data taken from the RNAGym collection of RNA variant scans (doi:10.7554/elife.90254).

B1: LINE1-full (parent)
chain: UACGUAGGUGGUUUUCCCCUGAUAGUGCUAAGGGGGCCUGGAAGUUUGGACUGGGCAGAGCUCAACACAGCGUGGCAAAGUGGCUGUGGCUAGACUGCCUCUCUGGAUUCCUCGUCACUCAGCAGGGCAUCUCUGAGAGAAAUGCC

Variants of: B1
Experiment: self-cleavage, relative activity (ratio to wild type); higher = more cleavage; in vitro, sequencing; the parent is a self-cleaving ribozyme

Variant | self-cleavage
A69C A142C | 0.13
A67G U134A | 0.39
G72C A136G | 1.41
U73A A107G | 2.03
U73A U91C | 0.19
C71A U108C | 0.43
U73A G97A | 0.11
C68U A138G | 0.17
A69U A141U | 0.05
G70A U130A | 0.15
A69G C76U | 0.69
A67U A94G | 0.02
C71G U112C | 0.37
C71U A77G | 0.86
C68U A78U | 0.37
A69U U96C | 0.03
C68U U104A | 0.03
U73A U132C | 1.53
U73A U132A | 1.73
A67U U85A | 0.05
U73A G83A | 0.53
U73A U109C | 1.05
G70A A138G | 0.21
G72U U143C | 1.02

Variant | self-cleavage
A69G G97U | 0.07
A69C G83A | 0.02
A69G A94G | 0.14
A69G A94U | 0.13
A67U U134C | 0.16
G70C U108C | 0.29
A69G U73A | 0.28
C71U U115C | 1.12
C71U U115G | 1.23
C71A U132C | 0.15
G72U U87A | 0.03
A67U A92U | 0.05
A67U A92G | 0.04
C71A U115A | 0.16
G72A U96A | 0.04
U73A U87A | 0.07
A69G U109C | 0.29
A67U U87A | 0.57
A69U U91C | 0.06
A69U U91A | 0.05
A69G C113U | 0.41
A69G C113A | 0.48
A67U C101A | 0.09
U73A A92U | 0.8

Variant | self-cleavage
U73A A92G | 0.13
U73A U108C | 2.23
U73A U108G | 0.44
C68U U130C | 0.19
U73A U96A | 0.05
U73A U96C | 0.1
A69G A77C | 0.61
A69G A77U | 0.58
A69G A77G | 0.6
C68U A107G | 0.12
C68U A107U | 0.19
A69U G88A | 0.01
A69G C71U | 0.1
A69U U81A | 0.01
A67G U100A | 0.06
A67U A117G | 0.19
A69U A117G | 0.08
A67U U130C | 0.15
A67U A138G | 0.13
A67U A138U | 0.15
A67U U100C | 0.27
A67U U96C | 0.07
A67U U91C | 0.05
A67U U91A | 0.08

Variant | self-cleavage
C68U U85C | 0.03
C68U U85A | 0.03
A69C U85C | 0.03
C68A G88A | 0.01
A69G C84G | 0.06
U73A A94C | 0.05
U73A A94G | 0.35
A69U C118U | 0.01
U73A C99A | 0.92
U73A A142U | 1.41
U73A A142G | 1.57
G70U U102A | 0.11
C68U A129C | 0.22
G72U U134C | 1.24
C68U U134A | 0.18
A69U U119C | 0.06
A69U U119A | 0.03
A69U G97C | 0
G70C A142G | 0.14
A69U U112A | 0.04
A69U U112C | 0.06
G72C C90U | 0.03
A67U G89A | 0.03
U73C A92G | 0.16

Variant | self-cleavage
A69G U119A | 0.65
A69G U119C | 0.64
C71U U132C | 1.05
C71G A77G | 0.4
A67G U104A | 0.36
A67U A78G | 0.08
G70U U119C | 0.07
G70U U119A | 0.03
A69U C71U | 0.02
G70U A92G | 0.08
G72U U81C | 1.28
A69U C116A | 0.05
A69U A79G | 0.05
A69G U91C | 0
A67G U108C | 0.6
A67G U108A | 0.5
U73A U134G | 0.45
U73A U134A | 1.28
U73A U134C | 1.46
U73A C120U | 1.79
A69G A79G | 0.31
A69C G88A | 0.01
C71A U130A | 0.17
A69U U143A | 0.04

Variant | self-cleavage
A69U U143C | 0.07
A67G U143C | 0.57
A67G U143A | 0.42
U73A U100C | 2.71
U73A U100A | 0.97
A69U U108C | 0.06
U73C A78G | 1.12
U73C A78C | 0.77
C71A A138G | 0.33
G70A A79G | 0.1
C68U U132C | 0.25
A69C U132A | 0.2
A69C U132C | 0
A69G C128U | 0.63
G72U U85G | 0.1
C71U U87C | 0.04
A69G C120U | 0.44
A69G G89A | 0.03
A69G U100C | 0.98
A69G U100A | 0.17
C71U A138U | 1.04
G70C G144A | 0.15
U73C A77G | 2.78
A69G C90U | 0.07

Variant | self-cleavage
A69G C90A | 0
C71U A79U | 0.74
A69C U134C | 0.03
A69G U87A | 0.03
A69G U87C | 0.07
A69G U87G | 0.48
A69U G82A | 0.14
C71U U130C | 1
U73A A136G | 1.61
C71U A140G | 0.9
A69U A92G | 0.03
C71U U96C | 0.05
C71U U96A | 0.04
G70C U102A | 0.07
A67U G106A | 0.15
G72C U108G | 0.96
G72U U91C | 0.49
G72U U91A | 0.49
A69U A124U | 0.09
A69U A124G | 0.05
A69G G83U | 0.15
A69G G83A | 0.18
A67U U73A | 0.05
